Assay results from patent publication US20200157180A1 (JIANGSU HENGRUI MEDICINE, published 2020).

Tests used:
[1] = target: human PD-L1 on CHO/PD-L1 cells (human, UniProt Q9NZQ7 19-290); experiment: cell-based or functional assay
human TGF-β1 [2] = target: T1, human TGF-β1 (human, UniProt P01137 279-390); experiment: cell-based or functional assay
human TGF-β1 [3] = target: T1, human TGF-β1; experiment: ELISA, coated human TGF-β1 1 µg/ml, anti-human Fc-HRP, OD450
Procedure: a. 96-well plates were coated with 100 μl/well of human TGF-β1 (8915LC, CST) at a concentration of 1 μg/ml at 4° C. overnight.
d. The wells were washed 3 times with 250 μl 1×PBST, e. 100 μl of Anti-human Fc antibody-HRP (1:4000) was added to each well and incubated for 40 minutes at 37° C.

T1 sequence (P01137 279-390 limits assumed): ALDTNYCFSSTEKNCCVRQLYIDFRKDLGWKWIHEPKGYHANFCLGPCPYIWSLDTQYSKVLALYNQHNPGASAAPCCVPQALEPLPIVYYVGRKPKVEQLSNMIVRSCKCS
human PD-L1 on CHO/PD-L1 cells, sequence (Q9NZQ7 19-290): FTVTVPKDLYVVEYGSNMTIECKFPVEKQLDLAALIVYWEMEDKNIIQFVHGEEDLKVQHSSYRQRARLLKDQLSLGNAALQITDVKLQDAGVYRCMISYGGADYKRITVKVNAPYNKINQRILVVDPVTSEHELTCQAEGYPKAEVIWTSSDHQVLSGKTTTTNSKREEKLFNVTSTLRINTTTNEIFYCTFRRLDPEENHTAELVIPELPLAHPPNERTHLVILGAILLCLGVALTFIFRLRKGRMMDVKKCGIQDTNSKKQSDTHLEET

EC50 (read off the curve) [1]: ~0.3 nM
IC50, TGFβ-induced pSMAD3 reporter (luciferase) activity in HepG2 cells (human TGF-β1 [2]): > 500 nM
binding result (human TGF-β1 [3]): no binding (tested: Log(pM) 6 (10^6 pM))
B1: PD-L1 antibody (antibody, human IgG4 S228P, kappa, F234A L235A, V domains shown)
VH: QVQLVQSGAEVKKPGASVKVSCKASGYTFTSYWMHWVRQAPGQGLEWMGRIGPNSGFTSYNEKFKNRVTMTRDTSTSTVYMELSSLRSEDTAVYYCARGGSSYDYFDYWGQGTTVTVSS
VL: DIVLTQSPASLAVSPGQRATITCRASESVSIHGTHLMHWYQQKPGQPPKLLIYAASNLESGVPARFSGSGSGTDFTLTINPVEAEDTANYYCQQSFEDPLTFGQGTKLEIKR
notes: Humanized IgG4 with S228P, F234A, L235A; last heavy chain residue K mutated to A; also called anti-PD-L1 antibody; PD-L1 antibody heavy chain: IgG4(AA)(S228P)
